Assay results as given in the DeepSol protein solubility set.

experiment: soluble on expression in E. coli; label from the status in PepcDB or PDB records

Sequence | soluble on expression in E. coli
MAEGLRERKKRQTRQYISDVATGLFLERGFEAVTVAEVADAANVSVNTVYNYFPAKEDLFLDRSKGVIDRLSRWVRGRRDGESAAGAVLRELRDEVESVSPRVGLMDGYATFMKVIQDSPALRSRMWAIGQEVLLNLEHTLREETGSADDDMTPTLMAGQINWLHGTVLAAIGGRMVAGGKPSEVSRDMLLLLDEMEELLSEKVLNYAVRGAL | not soluble
MGSDKIHHHHHHMPGLPRASGSRFSRRLWSNLTWSGLLSMAVMPRHTSIARPPHGMMDPSGTTVWSYDTQGRIIGKTQVVDGASLVTSYVYDGDGRLASLTYPSGEVINYSWSNGQLTGIFRGTSLIASGITCHPFGPVKSWTLDNGQNIVRNFDLDGRITSYSLGSLAYDAASRITGISRGGISILGNSKTYGYDATDRLISFSDGTSAETYAYDASGNRTGQTINGMAYTYSVSYASNRLDAMAGPGSSLHYSYDANGSLVNDGQRSFGYDASGRLSEAVGLASYSFNGLGQRVKKNAGTVIMFVFDEGGQLIGEYGAAGNPIQETVWLDDVPLAVLRYGTTYYIHTDHLNTPPADS | not soluble
MGSDKIHHHHHHMYIDGVFSGGGVKGIALAGAYEVLEEKGFRFKRVAGTSAGAIIAAFIASGYTSKEIHALIEEVDGEKLLDQRYSFLPLKMLQWVSIYWRLGLYKGDTIEKWIADLLRAKGIRVFGDLQKGSLRLIASDLTNGTMIVLPDDLARYGLNPDMFPVARAVRMSCSIPYFFEPIKLKTDTGTATVVDGGVLSNFPIWLFSKERKRPVIGVTLAPRERERPKKNIRNAFELFGALFETMKDAHDARHIASRYEQNIIFLPVDDVMATDFHLTQQKKLALIELGKRRTELFLKQWTY | not soluble
MGSDKIHHHHHHMNYLQIARNSLAAEQNALAKLSQNLNQQFNQVVELILNCEGRLVVGGIGKSGLIGKKMVATFASTGTPSFFLHPTEAFHGDLGMLKPIDIVMLISYSGESDDVNKLIPSLKNFGNKIIALTGNLNSTLAKHADYILDISVEREACPNNLAPTTSALVTLALGDALAVSLITARNFQPADFAKFHPGGSLGRRLLCRVKDQMQVRLPKVTENTNFTDCLTVMNEGRMGVALVMENENLKGIITDGDIRRALSANGTNTLNKTAKDLMTSNPKTINYNTYLSEAENFMKEKKIHSLVVVDDQNKVIGLVEFSS | not soluble
GMAEEKKKKLSIIVFSGTIDKLMPVGILTSGAAASGYEVNLFFTFWGLQAITKRSLNSQQPPQIDKNYEQMGPIMMQKMQEMKYPMWHQLVQQAKEIGEVKVFACSTTMEFFGIKREDLAEFVDDVVGVATFLDRAEGGTTLFI | soluble
MSLNFDWIKTRSDFDDDKPAVIDHAKQTSWTYQQLNARADNMAHYLTSQGVKKGDVIGIFAPNDIAILDLLFACFKTGAVFLPLNWRLNPKEIAAIVEDAQLKLLFYAEKHLSSLTDIDQNLLHMDIDVAQYDEIVNPDYHQPFQATPVEPQDLAALIYTSGTTGSPKGVMFSYESFVHNGANLELTYKFNSNYITIVSTPMFHVLGFNDTVLPVLMSGGTLILQRYFNGEELNDMIAQYHPTFIIMIPTMYYSTLRASNFNPENFRAMDYIIQGGSQPLPSIQAAFKQYGINIINGYGLTEAPLVLVNTPENSKRKPMSIGKAVMFVDARILDDNGEEVPTGEIGELAIKAKNVTPGYWNKPAETAKAFHGRYLLTGDLAKMDDDGDIFIIDRKKELIITGGENVLPSEVENALAEHPLVDRCVVVGYDHPKYGESIAAAIILREDEPHYAEILDQHMRSRLAGYKVPRMYVPVTHMPLNSTQKPDKLAIRQMMNDKVSQTLEGHHHHHH | soluble
LPDGIEEVLPPEAARIEVARRQVLDLFQSWGYEFVVTPHIEYLESLLTGAGSDLDLRTFKVIDPQSGRQMGFRADITPQVARIDAHTLKREGPSRLCYAGSVLHAQPRALSSSRSPIQLGAELYGDASPSSDVEVISLMLAMLQLADVPDVHMDLGHVGIYRGLARAAGLSGEVEQQLFDALQRKAIDEVVALTANLPPELASMLRALVDLCGGREVLDAARDRLAGAPAPVLEALDDLLAIADRLAARFPQLPLYFDLGELRGYHYHTGVVFAVFVPGVGQSIAQGGRYDDIGADFGRARPATGFSTDLKTLVTLGQAEIVL | not soluble
MGSDKIHHHHHHMEKSKYKRDWSKYDENVITRYKLMFPFYVFEHWWDLLAEENRNARTKYKAPKEFNEFLAFLHIFLPYRAIEGVLRALEQLKIIPTSLDYSTIWERVRNMNITFPETSDELEVIADATGISTNTGGQYIVAKWGKTRDSKFLKIEIVMDNNEFNVINAEVTSNEVESAVKTVKDLQDKGKKVKKFYGDKAYDANEVYKTGVEVVVPPKKNASTKRHLARRKAVREFRKLGYDRWKEEKGYGVRWRVESLFSAVKRTFGESVRQVLLGK | not soluble
MSIEHHFLCPKKLLKLCNKKIDKDVIRNLQLLTEKFLSDIIHRSALLCKHKGKSTVDNTDIRFVIEKDFDYSFGTREIQGTTSLPTAEHLERMAEISRQNK | not soluble
MARNSTLTNLFLSTKRNMGRLISHIVKADDIDDIVQETFIKTYEADLKQEIKYVRSYMLKTAKNLALNHVARWDNKYNDSLEDFSQPPVQLTSGKVEDDYESKEQFLFFCRATDQLSGSVRKCFILKKVYGLSQKEIASYLNLSESTVEKHIAQGLLKSTKYIKRMNHGHSVKGAKQNHQVHSLQVKKTVLK | not soluble
GMVRYPLEPVLSIKKDRVDRAEKVVKEKRRLLELEQEKLRERESERDKVKNHYMQKIRQLREQLDDGTTSDAILKMKAYIKVVAIQLSEEEEKVNKQKENVLAASKELERAEVELTKRRKEEEKTRLHKEEWMKEALKEEARQEEKEQDEMGQLLHQLHKQKQRESGEN | soluble
MFRIGQGFDVHEFAEGRPLIIGGITIPHEKGLIGHSDADVLLHTIADACLGAIAAGDIGKHFPDTDPAFKDADSAVLLQKVWEFVREQGYELGNLDCTIIAQKPKMAPHIESMRKRISELLETSIDNINVKATTTEKLGFTGREEGIASQAVVLLQKK | not soluble
MEVSHVTLEPNKDSRPAVLTIGKFDGVHLGHQTILNTALSIKKENEILTAISFSPHPLWALKQIEIYREMLTPRMEKERWLAHYGVDHLIETAFTPRYAETTPEEFVTDHLSNLQLSHIIVGSEFNFGKGRDSDVDLLRDLCKPYGIGVTSVPVIETNQTKISSTNIRAFIRRGHFLEAEQLLGHP | not soluble
MARLLMIPGPTPVDPEVLLAMARPVISHTSPDFDEIHGETVSMLQKLFRTSGKVFLLPGSGSLGMEFAVRSVAGRGSRALVLKAGYFGGYFERILRSLGASVTVVESPVGRGFTGADVEEALDRAGDVDVVFVQHVETSTSVANPVREIAGVVKKNGARLVVDGIASVGGMDLRLDEWGVDVALTGSQKALSTPPGLAIVAFSSEYSVELEKREPSGIYFDFLSLSREMESTRNYHITPAVNLVFALNASLKRILGEGLENRFERHRVLARAFTRAMEALGLRLVAEEPFRAWTVTAVYLPQGIDWSRFYSVMRKRGVEVAGGLGGLKGKIFRVGHMGEVDANDLIATIAAIERSLVELGYREARLGQGLEAAQKELSSLGL | soluble
SLSTRGINFLHQWIANNVPETTKPDAVSISEITHKLFSDAKALGIKREDIDEEVESLTAHCSIGLCISTLA | not soluble
MSLMIRAITIFVTNYSKISDYTEKLSKLNDNNIWSKRISLPPTPIDLSLSKLIELLPTTHSEIIFSLINLQEKDKRLREIKDILKSDKRIYVHVLVKTTDNLKDLAKLIISLEPEEASRFALLFNQDFLLTPYFPTSSANTVYDSFGISLLYVDEFKQGKINEALSKADTIGRQLEKKLNIKYLGIDASLSPWMESSVGEIVESRSKKMFDISNLSAVAEINREIFEGVWRNRVNPIGFSELMLPIAEDNLLRERVKEGSLTLKDLLLMSYVCVAGIDMVGIYSDLVTYENILKSVYYIQYTKRKPYGVRMIPTNGSPVLTKMFGEIPEVKVVEGHHHHHH | soluble
MKNKVVVVTGVPGVGGTTVTQKAMDILSEEGLNYKMVNFGSAMFDVANEEGLASDRDQMRKLDPETQKRIQKMAGRKIAEMAKESPVAVDTHSTVKTPKGYLPGLPAWVLTELNPDIVIVVETDGDEILMRRLSDESRKRDLETTASIEEHQFMNRAAAMSYGVLTGATVKIVKNKNGLVDNAVEELMSVLR | soluble
MKDHSGISFGKNPTVLAIENYIRENGLTPGDVLPSEAAICEHLSVSRSSVREAMRTLASLDVVEIRHGHGTYVGKMSMAPLVNGMVLRLTLNEKSAIENLQHVVGMRIALDRSNAQELAAYYKGRETPKLDQIVEEMKIQFERGESFEHQDFLFHQLLNDHLSNPLMQEFSMALWEIHTRVVPRLGLRDPEDISNTVQAHAHMVEALRAGDVDKLLETIDEHYQPLLSILEKNRQYVEQTEHAVESQKGTLHL | not soluble
MSVPGPSSPDGALTRPPYCLEAGEPTPGLSDTSPDEGLIEDLTIEDKAVEQLAEGLLSHYLPDLQRSKQALQELTQNQVVLLDTLEQEISKFKECHSMLDINALFAEAKHYHAKLVNIRKEMLMLHEKTSKLKKRALKLQQKRQKEELEREQQREKEFEREKQLTARPAKRM | soluble
MMKKIKILSLLVCLIALFTACHDEEDKTNYGSRTVLVYIAGDNSLSRFASEDLNEMIEGMQSVDDNHNNLLVYMDKGSNPKLIRLRKDKDVVVQDVIATYDAQNSVDVDVMKNVFTTAFSHYPADSYGVVFWSHGDGWLPYNNPSTRWWGQDTGNGDNRMNIPDLNEALSVAPHFDFILFDACYMQSVEVVYQLRNRADYFIGSPTEIPGPGAPYEVVVPALFAVNSPAVSIAENYYSVYAKKYNSTGAGISNENWTGGVSISVIKSSELSALAAATRDVLQTAVSMQQSHNIDISSILCYDPLRENNYHDLMGLMQSIQGNSQAFNHYKEMYKNAVIWKNTTDNNYCTYSSGYGKMVSMDGFEGVSTYILRENNSSQEKYYRQFVEWYSAADWDSVDWLEHHHHHH | not soluble
MGSDKIHHHHHHMTSFVLSSKNAFDYLILQGLCTQNEKSLSKIELVPAKNFNLLISLPDNRKLLIKQEPHKREGKTSGEFLKEWRVHNFLQTFPELSDIRSYFSEAVHFDPENSIFVFNYLTNYRDLMDFYVERNLKLFPIKIAMLVGTTLASIHRLSIDRQEYQEFFLNKNIFGQGIPNLNLGMDRVSPAVFGKLPTDGLKFLSLYQRYDSLGQAIAELNNALIPCCLTHNDLKLNNILLSLNWEEAAFNESSSDESIIRLIDWERGAWGDPASDLGTLIASYLQLWLHSMITSKTMAIQESLRLATTPLHLLQPSIRELVIAYLSAFPEIIELHPDFLQRVMQFCGFALIKSIQAKLQHEKTFGNKGICILQVAKSLLCRPEASIPTIFGVDASDLSPINLSPASK | not soluble
MGVKTFQFPFAEQLEKVAEQFPTFQILNEEGEVVNEEAMPELSDEQLKELMRRMVYTRILDQRSISLNRQGRLGFYAPTAGQEASQIASHFALEKEDFILPGYRDVPQIIWHGLPLYQAFLFSRGHFHGNQIPEGVNVLPPQIIIGAQYIQAAGVALGLKMRGKKAVAITYTGDGGTSQGDFYEGINFAGAFKAPAIFVVQNNRFAISTPVEKQTVAKTLAQKAVAAGIPGIQVDGMDPLAVYAAVKAARERAINGEGPTLIETLCFRYGPHTMSGDDPTRYRSKELENEWAKKDPLVRFRKFLEAKGLWSEEEENNVIEQAKEEIKEAIKKADETPKQKVTDLISIMFEELPFNLKEQYEIYKEKESK | soluble
